# B1: nanobody Nb6 (class I synthetic nanobody) (VHH)
# VHH: QVQLVESGGGLVQAGGSLRLSCAASGIIFGRNAMGWYRQAPGKERELVAGITRRGSITYYADSVKGRFTISRDNAKNTVYLQMNSLKPEDTAVYYCAADPASPAPGDYWGQGTQVTVSS
# Target: SARS-CoV-2 Spike receptor binding domain (RBD) (SARS-CoV-2, ancestral (Wuhan-Hu-1) …, UniProt P0DTC2)
# Experiment: SPR
# Details: both partners purified
binder,measurement,value
B1,Kd,41 nM

# From publication PMC7857409 (Science (New York, N.y.), 2020)
